Measured values from US20090104205A1 (AstraZeneca / MedImmune, published 2009).

B1: humanized 1308F (CDR-grafted anti-RSV F antibody, human IgG1/kappa) (antibody, V domains shown)
VH: QVQLVQSGAEVKKPGASVKVSCKASGFNIKDYYIYWVRQAPGQGLEWIGWIDPENGNTVFDPKFNGRVTMTRDTSTSTVYMELSSLRSEDTAVYYCAYYGTSSFDFWGQGTTLTVSS
VL: DIQMTQSPSTLSASVGDRVTITCKASQDINRYLNWYQQKPGKAPKLLIYRANRLVDGVPSRFSGSGSGTEFTLTISSLQPDDFATYYCLQFHEFPYTFGGGTKLEIL
notes: also called H1308F; Hu1308F
B2: murine monoclonal antibody MAb 1308F (antibody, V domains shown)
VH: EVQKQQSGAELVRPGALVKLSCKASGFNIKDYYIYWVKQRPEQGLEWIGWIDPENGNTVFDPLFQGKASITSDTSSNTAYLQLSSLTSEDTAVYYCAYYGTSSFDFWGQGTTLTVSS
VL: DIKMTQSPSSMYVSLGERVTITCKASQDINRYLNWFQQKPGKSPKTLIHRANRLVDGVPSRFSGSGSGQEYSLTISSLEFEDMGIYYCLQFHEFPYTFGGGTKLEIL
notes: also called M1308F; Mu1308F
B3: humanized 1129 (CDR-grafted anti-RSV F antibody, human IgG1/kappa) (antibody, V domains shown)
VH: QVTLRESGPALVKPTQTLTLTCTFSGFSLSTSGMSVGWIRQPPGKALEWLADIWWDDKKDYNPSLKSRLTISKDTSKNQVVLKVTNMDPADTATYYCARSMITNWYFDVWGAGTTVTVSS
VL: DIQMTQSPSTLSASVGDRVTITCKCQLSVGYMHWYQQKPGKAPKLWIYDTSKLASGVPSRFSGSGSGTEFTLTISSLQPDDFATYYCFQGSGYPFTFGGGTKLEIK
notes: also called H1129; Hu1129
B4: murine monoclonal antibody MAb 1129 (antibody, V domains shown)
VH: QVELQESGPGILQPSQTLSLTCSFSGFSLSTSGMSVGWIRQPSGEGLEWLADIWWDDKKDYNPSLKSRKTISKDTSSNQVFLKITGVDTADTATYYCARSMITNWYFDVWGAGTTVTVSS
VL: DIQLTQSPAIMSASPGEKVTMTCSASSSVGYMHWYQQKSSTSPKLWIYDTSKLASGVPGRFSGSGSGNSYSLTISSIQAEDVATYYCFQGSGYPFTFGGGTKLEIK
notes: also called M1129

Columns and labels:
[1] = biological target: T1, C-terminal truncated RSV F protein (secreted, from recombinant baculovirus) (respiratory syncytial virus, UniProt P03420 26-524); test: SPR (BIAcore), F protein amine-coupled, Kd = kd/ka
T1 construct: also called immobilized F protein
T1 sequence (P03420 26-524): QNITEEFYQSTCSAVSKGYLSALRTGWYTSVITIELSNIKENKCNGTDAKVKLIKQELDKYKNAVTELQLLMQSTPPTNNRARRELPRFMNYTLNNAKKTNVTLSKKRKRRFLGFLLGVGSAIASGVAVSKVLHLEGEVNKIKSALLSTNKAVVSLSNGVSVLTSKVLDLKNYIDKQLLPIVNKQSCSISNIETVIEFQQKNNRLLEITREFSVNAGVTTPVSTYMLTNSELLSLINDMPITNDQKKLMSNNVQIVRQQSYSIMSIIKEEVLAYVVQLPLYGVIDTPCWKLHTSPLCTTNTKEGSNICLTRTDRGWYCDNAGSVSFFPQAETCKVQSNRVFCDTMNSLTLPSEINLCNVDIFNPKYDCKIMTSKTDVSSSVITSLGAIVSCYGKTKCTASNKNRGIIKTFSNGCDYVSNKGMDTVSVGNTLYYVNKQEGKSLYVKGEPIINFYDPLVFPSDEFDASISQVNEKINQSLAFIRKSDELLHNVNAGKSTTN

[2] = biological target: T1, C-terminal truncated RSV F protein …; test: SPR (BIAcore), F protein amine-coupled, Mab injected at 25-300 nM
[3] = biological target: T2, RSV F protein (native, from RSV virus or RSV infected HEP2 cell lysate) (respiratory syncytial virus, UniProt P03420 26-574); test: capture ELISA: RSV infected HEP2 cell lysate captured on Mu1331 antibody; double reciprocal plot of OD vs antibody concentration
T2 construct: In the ELISA the antigen was whatever the Mu1331 anti-F antibody captured from the infected cell lysate; also called RSV F antigen; RSV F glycoprotein
T2 sequence (P03420 26-574): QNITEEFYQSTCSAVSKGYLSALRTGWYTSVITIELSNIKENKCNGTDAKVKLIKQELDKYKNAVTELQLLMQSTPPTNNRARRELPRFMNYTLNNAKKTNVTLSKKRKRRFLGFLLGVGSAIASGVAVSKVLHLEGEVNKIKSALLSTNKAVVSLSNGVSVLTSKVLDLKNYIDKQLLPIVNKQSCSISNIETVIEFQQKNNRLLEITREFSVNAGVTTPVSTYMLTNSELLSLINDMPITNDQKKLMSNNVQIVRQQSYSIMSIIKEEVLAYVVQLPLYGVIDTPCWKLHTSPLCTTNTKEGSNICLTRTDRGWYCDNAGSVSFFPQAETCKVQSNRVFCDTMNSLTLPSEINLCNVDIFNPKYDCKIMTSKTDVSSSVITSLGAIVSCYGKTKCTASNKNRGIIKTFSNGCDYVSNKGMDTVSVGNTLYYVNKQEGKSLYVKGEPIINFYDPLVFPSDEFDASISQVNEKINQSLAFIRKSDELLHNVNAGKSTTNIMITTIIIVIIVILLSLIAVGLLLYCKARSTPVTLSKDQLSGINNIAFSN

| Binder | Kd [1] [nM] | koff [2] [s⁻¹] | kon [2] [M⁻¹ s⁻¹] | t1/2 (dissociation half-life) [2] [h] | Kd [3] [nM] |
| --- | --- | --- | --- | --- | --- |
| B1 | 2.5 | 5.5e-05 | 22000 | 3.5 | – |
| B2 | 1.1 | 3.8e-05 | 35000 | 5.1 | – |
| B3 | 1.4 | 6.9e-05 | 49000 | 2.8 | 0.7 |
| B4 | 11.4 | 0.0004 | 35000 | 0.48 | – |
